In PMC7913695, “Mechanism of DNA cleavage by the endonuclease SauUSI: a major barrier to horizontal gene transfer and antibiotic resistance in Staphylococcus aureus”:

T1: SauUSI (Staphylococcus aureus, UniProt Q2FVC3 1-953)
T1 sequence: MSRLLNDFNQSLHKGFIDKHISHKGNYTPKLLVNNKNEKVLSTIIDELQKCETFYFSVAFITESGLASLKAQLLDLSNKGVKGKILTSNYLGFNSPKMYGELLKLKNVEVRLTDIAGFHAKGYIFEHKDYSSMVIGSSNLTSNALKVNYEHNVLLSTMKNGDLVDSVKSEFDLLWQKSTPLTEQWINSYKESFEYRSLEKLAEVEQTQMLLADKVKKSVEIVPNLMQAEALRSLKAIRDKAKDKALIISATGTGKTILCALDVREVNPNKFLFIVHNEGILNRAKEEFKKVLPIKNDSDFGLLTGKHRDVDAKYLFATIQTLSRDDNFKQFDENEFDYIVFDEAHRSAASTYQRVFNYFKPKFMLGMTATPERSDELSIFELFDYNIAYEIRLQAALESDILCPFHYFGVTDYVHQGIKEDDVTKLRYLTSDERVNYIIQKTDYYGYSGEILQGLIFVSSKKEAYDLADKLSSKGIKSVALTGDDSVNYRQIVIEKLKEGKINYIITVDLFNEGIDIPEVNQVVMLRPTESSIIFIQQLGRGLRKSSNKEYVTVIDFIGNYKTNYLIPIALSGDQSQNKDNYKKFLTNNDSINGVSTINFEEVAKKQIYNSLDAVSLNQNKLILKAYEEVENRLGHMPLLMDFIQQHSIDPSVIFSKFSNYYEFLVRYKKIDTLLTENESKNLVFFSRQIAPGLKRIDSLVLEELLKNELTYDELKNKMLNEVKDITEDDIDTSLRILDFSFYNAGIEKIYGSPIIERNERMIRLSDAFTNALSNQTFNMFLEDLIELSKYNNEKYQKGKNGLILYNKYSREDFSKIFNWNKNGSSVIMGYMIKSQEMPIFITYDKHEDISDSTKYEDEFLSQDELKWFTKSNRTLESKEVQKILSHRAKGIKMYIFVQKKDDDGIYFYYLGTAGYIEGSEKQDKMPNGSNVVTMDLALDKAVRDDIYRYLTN

B1: EMSA methylated 60 bp (specific DNA) (dsDNA)
DNA 1: GCCGCGGATCCTTCACAAGACGATTACCGGCGCTGAAAGACCAGCATATGCAATTTGACT
DNA 2: AGTCAAATTGCATATGCTGGTCTTTCAGCGCCGGTAATCGTCTTGTGAAGGATCCGCGGC
modifications: 5-methyl-dC at position 28 of strand 1 and position 31 of strand 2 (both strands)

How the values were obtained:
[1] = target: SauUSI (Staphylococcus aureus); assay: SEC-MALS; 1 mg/ml SauUSI injected on Superdex 200 in 50 mM Tris-HCl pH 8, 50 mM NaCl, 1 mM DTT
[2] = target: T1, SauUSI; assay: EMSA; 250 nM DNA; shift first detected at 0.1 uM SauUSI (0.05-1.6 uM tested); Protein and DNA incubated 20 min on ice; 5% native PAGE, ethidium bromide stain; binding buffer, salt and pH not stated; settings: protein: recombinant; tags: His-tag (HisTrap purified); chain copies: 2; blunt

Molecule	stoichiometry N [1]	binding result [2]
SauUSI (enzyme)	2	
B1		binds
